Measured values: PMC4749145 (Biochemistry, 2015)

Columns and labels:
[1] = target: T1, arylalkylamine N-acetyltransferase like 7 (AANATL7) (Drosophila melanogaster, UniProt Q9W4Y1); assay: dead-end inhibition kinetics; type: biochemical
[2] = target: T1, arylalkylamine N-acetyltransferase like 7 (AANATL7); assay: intrinsic protein fluorescence quenching; type: binding
[3] = target: arylalkylamine N-acetyltransferase like 7 (AANATL7) (Drosophila melanogaster, UniProt Q9W4Y1, R138A); assay: intrinsic protein fluorescence quenching; type: binding
purified protein = substrate: CC(=O)SCCNC(=O)CCNC(=O)[C@H](O)C(C)(C)COP(=O)(O)OP(=O)(O)OC[C@H]1O[C@@H](n2cnc3c(N)ncnc32)[C@H](O)[C@@H]1OP(=O)(O)O; assay: purified protein; conditions: binds first in ordered sequential mechanism; pH 8.0
[4] = substrate: CCCC(=O)SCCNC(=O)CCNC(=O)[C@H](O)C(C)(C)COP(=O)(O)OP(=O)(O)OC[C@H]1O[C@@H](n2cnc3c(N)ncnc32)[C@H](O)[C@@H]1OP(=O)(O)O; assay: steady-state kinetics, Km,app; type: biochemical, Drosophila melanogaster; conditions: pH 8.0
[5] = substrate: NCCc1c[nH]c2ccc(OCc3ccccc3)cc12; assay: steady-state kinetics, Km,app; type: biochemical, Drosophila melanogaster; conditions: acetyl-CoA; pH 8.0
[6] = substrate: NCCc1c[nH]c2ccccc12; assay: steady-state kinetics, Km,app; type: biochemical, Drosophila melanogaster; conditions: acetyl-CoA; pH 8.0
[7] = substrate: NCCc1ccc(O)cc1; assay: steady-state kinetics, Km,app; type: biochemical, Drosophila melanogaster; conditions: acetyl-CoA; pH 8.0

Molecule: OCCc1ccc(O)cc1 [tyrosol]
- Ki [1]: 430 ± 20 µM

Molecule: CC(C)(COP(=O)(O)OP(=O)(O)OC[C@H]1O[C@@H](n2cnc3c(N)ncnc32)[C@H](O)[C@@H]1OP(=O)(O)O)[C@@H](O)C(=O)NCCC(=O)NCCS [coenzyme A]
- Kd [2]: 530 ± 110 µM
- Kd [3]: 1.1 ± 0.2 mM

Molecule: CCCCCCCC/C=C\CCCCCCCC(=O)SCCNC(=O)CCNC(=O)[C@H](O)C(C)(C)COP(=O)(O)OP(=O)(O)OC[C@H]1O[C@@H](n2cnc3c(N)ncnc32)[C@H](O)[C@@H]1OP(=O)(O)O [oleoyl-CoA]
- Ki [1]: 0.2 ± 0.01 µM

B1: arylalkylamine N-acetyltransferase like 7 (AANATL7) (Drosophila melanogaster) (protein)
chain: MEYKMIAPEHSEQVMEHLRRNFFADEPLNKAAGLCQNGSSCPALEAHCAEAIQHRMSVMAVDAKEKDTLKIVGVVLNGILKPGDTAKALSKLDCNDDADFRKIFDLLHRHNLKHNLFEHFDVDCMFDVRILSVDSCYRGQGIANELVKRSVAVAKKNGFRLLKADATGIFSQKIFRSHGFEVFSEQPYSKYTDENGKVILPVEAPHIKLQQLYKAICADDQDEKKQSL
- Km (purified protein): 29 ± 2 µM
- kcat (purified protein): 32 s⁻¹
- kcat/Km (purified protein): 1.1e+06 M⁻¹ s⁻¹
- Km [4]: 6 ± 1 µM
- kcat [4]: 0.66 ± 0.02 s⁻¹
- kcat/Km [4]: 110000 ± 20000 M⁻¹ s⁻¹
- Km [5]: 9 ± 1 µM
- kcat [5]: 5.7 ± 0.1 s⁻¹
- kcat/Km [5]: 630000 ± 40000 M⁻¹ s⁻¹
- Km [6]: 26 ± 2 µM
- kcat [6]: 16 ± 0.3 s⁻¹
- kcat/Km [6]: 600000 ± 40000 M⁻¹ s⁻¹
- Km [7]: 42 ± 2 µM
